Laboratory results from patent US20250332297A1, “DLL3-SPECIFIC BINDING CONSTRUCTS AND THEIR USE IN RADIOTHERAPY” (MOLECULAR PARTNERS AG, priority 2024, published 2025).

B1: Human DLL3-ECD (recombinant extracellular domain of human DLL3, Examples 11, 17 and 19) (Fc fusion)
chain: AGVFELQIHSFGPGPGPGAPRSPCSARLPCRLFFRVCLKPGLSEEAAESPCALGAALSARGPVYTEQPGAPAPDLPLPDGLLQVPFRDAWPGTFSFIIETWREELGDQIGGPAWSLLARVAGRRRLAAGGPWARDIQRAGAWELRFSYRARCEPPAVGTACTRLCRPRSAPSRCGPGLRPCAPLEDECEAPLVCRAGCSPEHGFCEQPGECRCLEGWTGPLCTVPVSTSSCLSPRGPSSATTGCLVPGPGPCDGNPCANGGSCSETPRSFECTCPRGFYGLRCEVSGVTCADGPCFNGGLCVGGADPDSAYICHCPPGFQGSNCEKRVDRCSLQPCRNGGLCLDLGHALRCRCRAGFAGPRCEHDLDDCAGRACANGGTCVEGGGAHRCSCALGFGGRDCRERADPCAARPCAHGGRCYAHFSGLVCACAPGYMGARCEF
modifications: biotinylated at the Avi-tag where immobilised (Examples 11 and 19)
notes: also called hDLL3-ECD; human ECD; not shown: Avi-tag and Fc knob into hole (order depends on the format)
B2: Non-binding DARPin control comprising SEQ ID NO: 22 (designed binder)
chain: DLGKKLLEAARAGQDDEVRELLKAGADVNAKDKDGYTPLHLAAREGHLEIVEVLLKAGADVNAKDKDGYTPLHLAAREGHLEIVEVLLKAGADVNAQDKSGKTPADLAADAGHEDIAEVLQKAAGSPTPTPTTPTPTPTTPTPTPTGSDLGKKLLEAARAGQDDEVRELLKAGADVNAKDKDGYTPLHLAAREGHLEIVEVLLKAGADVNAKDKDGYTPLHLAAREGHLEIVEVLLKAGADVNAQDKSGKTPADLAADAGHEDIAEVLQKAA
notes: Negative control on NCI-H82 cells; also called control DARPin

What was measured:
human serum albumin = molecular target: T1, human serum albumin (human, UniProt P02768 25-609); experiment: SPR, HSA injected (injection 2) over immobilised hDLL3-ECD without conjugate
T1 construct: also called HSA

[1] = molecular target: T2, Human DLL3 expressed on cells (HEK293T-hDLL3, NCI-H82, SHP-77, MC38-hDLL3) (human, UniProt Q9NYJ7 27-618); experiment: flow cytometry titration on NCI-H82 cells, with HSA
T2 construct: also called DLL3 endogenously expressed on human cells
T2 sequence: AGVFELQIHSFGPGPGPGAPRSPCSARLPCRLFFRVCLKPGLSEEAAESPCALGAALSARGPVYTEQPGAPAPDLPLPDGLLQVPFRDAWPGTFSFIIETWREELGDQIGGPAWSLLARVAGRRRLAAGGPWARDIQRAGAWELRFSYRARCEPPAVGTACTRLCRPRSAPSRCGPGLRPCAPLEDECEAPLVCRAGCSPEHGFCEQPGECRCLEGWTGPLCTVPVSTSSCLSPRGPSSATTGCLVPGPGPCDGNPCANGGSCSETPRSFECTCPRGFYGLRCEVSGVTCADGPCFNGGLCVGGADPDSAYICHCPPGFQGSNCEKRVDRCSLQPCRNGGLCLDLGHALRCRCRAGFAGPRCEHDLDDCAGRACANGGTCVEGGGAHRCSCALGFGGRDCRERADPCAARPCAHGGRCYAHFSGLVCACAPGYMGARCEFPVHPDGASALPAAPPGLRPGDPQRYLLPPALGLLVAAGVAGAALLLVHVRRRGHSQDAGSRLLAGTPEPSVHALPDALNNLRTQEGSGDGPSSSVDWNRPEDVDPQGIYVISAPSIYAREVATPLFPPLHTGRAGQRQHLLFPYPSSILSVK

Binder	binding result (human serum albumin)	binding result [1]
B1	no binding (tested: 1000 nM)	–
B2	–	no binding (tested: 500 nM)
